The target in assay [1] is T1, NEP (Homo sapiens, UniProt P08473).
T1 construct: purchased R & D systems 1182-ZNC-010
The assay can be described thus: QFS plate reader enzyme assay, peptide screen on NEP activity (Example 3). The conditions noted are these: peptide 10 ng/μL, NEP 0.05 ng/μL, 1 h at 37° C.; compared to enzyme alone. The assay is classed as biochemical. As to the method: (§1) Plate reader-based enzyme assays were performed using a quenched fluorescent substrate (QFS) in a 96-well format using a SpectraMAX M4 Microplate reader (Molecular Devices). The increase in fluorescence following addition of QFS (40 μM) was taken as evidence of enzyme activity. Fluorescence was monitored over 2 h at 37° C. using κEx=320 nm and λEm=405 nm. Assays were conducted in black 96-well plates. Specific enzyme activity was expressed as a rate of substrate cleavage calculated using a standard curve of 7-methoxy-coumarin-4-acetic acid.
(§2) In all plate reader-based enzyme assays using QFS, the reaction rate (μmol of substrate cleaved/min) was calculated using linear regression analysis (GraphPad Prism software version 8.01). The reaction rates calculated were used to generate the enzyme kinetic parameters Vmax and Km through non-linear regression analysis (GraphPad Prism software, version 8.01; Michaelis-Menten equation). Where indicated, enzyme activity in the presence of peptide was expressed as a % of the enzyme alone. Data were expressed as mean±SEM and statistical significance was determined using t-tests or one-way ANOVAs followed by Tukey's post-hoc test. P<0.05 was considered as statistically significant. In all assays conducted using 96-well plates, the reaction mixtures in each well were considered an independent experiment.
(§3) SEQ ID NOS: 1, 5 and 9-15 were screened for their effects on NEP and ECE1 using a high-throughput QFS assay using the method in Example 2 and the following procedure. NEP or ECE1 (0.05 ng/μL) was incubated with each peptide (10 ng/μL) for 1 h at 37° C.

The target of assay [2] is T2, ECE1 (Homo sapiens, UniProt P42892).
T2 construct: purchased R & D systems 1784-ZN-010
T2 sequence (P42892 1-770): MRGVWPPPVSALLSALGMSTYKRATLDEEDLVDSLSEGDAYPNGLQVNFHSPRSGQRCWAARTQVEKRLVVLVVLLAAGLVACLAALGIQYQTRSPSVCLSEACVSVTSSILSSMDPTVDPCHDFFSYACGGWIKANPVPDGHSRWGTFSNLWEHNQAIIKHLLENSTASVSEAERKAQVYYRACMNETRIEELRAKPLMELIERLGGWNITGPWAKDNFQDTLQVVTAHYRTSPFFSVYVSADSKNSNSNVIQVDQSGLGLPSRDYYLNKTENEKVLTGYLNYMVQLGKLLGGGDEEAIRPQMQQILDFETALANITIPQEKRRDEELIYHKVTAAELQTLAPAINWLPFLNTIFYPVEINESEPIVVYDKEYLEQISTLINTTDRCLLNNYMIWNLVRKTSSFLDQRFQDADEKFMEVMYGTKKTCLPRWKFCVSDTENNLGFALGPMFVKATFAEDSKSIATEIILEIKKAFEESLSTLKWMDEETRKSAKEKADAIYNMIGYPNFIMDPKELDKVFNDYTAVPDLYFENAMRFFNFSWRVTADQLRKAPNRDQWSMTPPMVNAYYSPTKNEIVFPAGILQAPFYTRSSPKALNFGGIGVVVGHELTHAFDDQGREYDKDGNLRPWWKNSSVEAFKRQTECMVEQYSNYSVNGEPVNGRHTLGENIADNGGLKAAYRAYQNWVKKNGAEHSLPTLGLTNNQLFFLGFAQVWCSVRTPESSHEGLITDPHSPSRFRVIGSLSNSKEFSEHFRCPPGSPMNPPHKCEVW
Put plainly: QFS plate reader enzyme assay, peptide screen on ECE1 activity (Example 3). In kind it is biochemical. The conditions noted are these: peptide 10 ng/μL, ECE1 0.05 ng/μL, 1 h at 37° C.; compared to enzyme alone. As to the method: as §1, §2, §3

Assay [3] has as its target T1, NEP. The settings on record: Smith A I et al., (2016) Scientific reports 6:22413; cited from earlier work.
Assay [4] deals with T2, ECE1. The conditions noted are these: Smith A I et al., (2016) Scientific reports 6:22413; cited from earlier work.

T1 sequence (P08473 whole entry): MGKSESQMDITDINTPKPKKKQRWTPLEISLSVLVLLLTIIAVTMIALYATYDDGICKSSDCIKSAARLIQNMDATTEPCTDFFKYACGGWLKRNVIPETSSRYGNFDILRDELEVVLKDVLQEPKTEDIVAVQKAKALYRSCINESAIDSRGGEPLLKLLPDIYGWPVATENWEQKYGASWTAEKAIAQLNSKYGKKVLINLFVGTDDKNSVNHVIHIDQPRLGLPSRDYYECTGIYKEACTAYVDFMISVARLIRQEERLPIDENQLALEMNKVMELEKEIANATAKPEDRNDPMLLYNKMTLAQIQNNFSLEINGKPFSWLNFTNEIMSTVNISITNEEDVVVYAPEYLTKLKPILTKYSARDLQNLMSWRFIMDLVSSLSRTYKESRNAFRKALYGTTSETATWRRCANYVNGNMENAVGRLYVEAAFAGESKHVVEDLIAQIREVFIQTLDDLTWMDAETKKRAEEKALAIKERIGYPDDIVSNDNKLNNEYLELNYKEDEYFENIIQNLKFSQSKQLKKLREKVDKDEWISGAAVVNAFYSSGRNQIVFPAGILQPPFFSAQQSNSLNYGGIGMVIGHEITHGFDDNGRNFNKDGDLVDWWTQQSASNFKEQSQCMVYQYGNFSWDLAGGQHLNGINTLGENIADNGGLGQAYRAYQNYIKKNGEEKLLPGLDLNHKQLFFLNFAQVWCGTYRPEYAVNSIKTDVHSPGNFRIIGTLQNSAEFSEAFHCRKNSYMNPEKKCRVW

In the case of H-SLFELGKMILQETGKNPAKS-OH [SEQ ID NO:9], the NEP activity entry in the assay with NEP [1] is “significantly stimulate”. For the same substance, in the assay with ECE1 [2], the ECE1 activity result is given as “significantly stimulate”. Further, the “NEP activity (previous studies)” value in the assay with NEP [3] is given as “directly increase the activity”. The “ECE1 activity (previous studies)” value in the assay with ECE1 [4] was “directly increase the activity”.

Values taken from patent US20240002441A1, “PEPTIDES AND USES THEREOF IN MODULATION OF AMYLOID-BETA PROTEIN DEGRADING PROTEASES” (priority 2020, published 2024).
